The target of the experiment is HIV-1 YU2 gp120 (HIV-1, UniProt P35961). Description: SPR, bivalent. A general note: SPR reads the build-up and loss of mass on a sensor chip optically.
Sequence of HIV-1 YU2 gp120 (P35961 32-671): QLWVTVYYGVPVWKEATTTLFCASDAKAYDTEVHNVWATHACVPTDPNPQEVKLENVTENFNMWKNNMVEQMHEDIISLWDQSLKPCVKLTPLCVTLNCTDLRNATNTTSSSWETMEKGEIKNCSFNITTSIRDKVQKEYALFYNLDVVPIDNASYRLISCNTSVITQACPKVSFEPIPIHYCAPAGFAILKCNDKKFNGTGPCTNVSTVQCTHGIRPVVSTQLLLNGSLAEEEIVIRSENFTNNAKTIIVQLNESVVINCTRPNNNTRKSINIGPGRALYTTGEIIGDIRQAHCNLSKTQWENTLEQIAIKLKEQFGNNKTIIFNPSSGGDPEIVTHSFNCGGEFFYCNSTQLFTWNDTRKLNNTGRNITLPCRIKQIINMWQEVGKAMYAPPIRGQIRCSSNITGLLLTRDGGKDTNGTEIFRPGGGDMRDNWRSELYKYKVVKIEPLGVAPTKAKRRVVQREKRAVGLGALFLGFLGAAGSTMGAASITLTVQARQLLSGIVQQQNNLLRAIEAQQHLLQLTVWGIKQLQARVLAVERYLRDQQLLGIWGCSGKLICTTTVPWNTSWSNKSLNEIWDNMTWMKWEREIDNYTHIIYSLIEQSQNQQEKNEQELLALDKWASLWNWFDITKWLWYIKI

B1: 8ANC195 IgG (antibody, V domains shown)
VH: QIHLVQSGTEVKKPGSSVTVSCKAYGVNTFGLYAVNWVRQAPGQSLEYIGQIWRWKSSASHHFRGRVLISAVDLTGSSPPISSLEIKNLTSDDTAVYFCTTTSTYDKWSGLHHDGVMAFSSWGQGTLISVSA
VL: DIQMTQSPSTLSASIGDTVRISCRASQSITGNWVAWYQQRPGKAPRLLIYRGAALLGGVPSRFSGSAAGTDFTLTIGNLQAEDFGTFYCQQYDTYPGTFGQGTKVEV
Take B1: the Kd turned out to be 82 nM.

The values above are taken from patent publication US10421803 (dated 2019).
